Test results reported in the supplement of paper PMC10724198.
± gives the standard deviation of the averaged measurements.

Tested on: Saccharomyces cerevisiae
Test: protein stability index of tFT-peptide fusion (C-terminal peptide) (PSI (0-1 scale)); higher = more stable (slower turnover)
Conditions: temperature: 30 C
Experimental: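 MPS profiling in S. cerevisiae of the yeast C-terminome library: the last 12 aa of each annotated ORF are fused to the C-terminus of a sfGFP-mCherry timer, after a GGGS linker. Cells are FACS-sorted into 8 mCherry/sfGFP bins and deep-sequenced. PSI runs from 0 (unstable) to 1 (stable); wild type and das1Δ backgrounds, two technical replicates each.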

[1] = genetic background: das1 deletion

| Sequence | protein stability index [1] | protein stability index (genetic background: wild type) |
| --- | --- | --- |
| HDHHNDVPEAPV [RAD1 C-terminal 12 aa] | 0.6941 ± 0.0012 | 0.692 ± 0.022 |
| RMSNGLYTISMS [YPR050C C-terminal 12 aa] | 0.694 ± 0.017 | 0.6869 ± 0.0011 |
| EHKGSIEAGFTS [CSS2 C-terminal 12 aa] | 0.698 ± 0.023 | 0.715 ± 0.025 |
| DIFDPVDFVSFF [OAF3 C-terminal 12 aa] | 0.772 ± 0.033 | 0.752 ± 0.034 |
| TDTEAEDDESPE [SEC63 C-terminal 12 aa] | 0.692 ± 0.025 | 0.633 ± 0.013 |
| LNDLSNVRHSKT [HER1 C-terminal 12 aa] | 0.6893 ± 0.0035 | 0.675 ± 0.022 |
| VKQMRKKKDKGD [MSB3 C-terminal 12 aa] | 0.688 ± 0.0093 | 0.691 ± 0.042 |
| RRKITLIEDDEE [SAS3 C-terminal 12 aa] | 0.715 ± 0.011 | 0.672 ± 0.019 |
| ASRFAQFLKQDA [MET16 C-terminal 12 aa] | 0.717 ± 0.012 | 0.764 ± 0.15 |
| SYKWLKRETSPL [FRA1 C-terminal 12 aa] | 0.712 ± 0.024 | 0.689 ± 0.022 |
| IYYKSQNWRREC [YBR219C C-terminal 12 aa] | 0.707 ± 0.045 | 0.169 ± 0.0069 |
| IYSVTKKRNTRI [RSF2 C-terminal 12 aa] | 0.725 ± 0.026 | 0.693 ± 0.092 |
| SNDDFRKMFLGE [PRP24 C-terminal 12 aa] | 0.725 ± 0.011 | 0.708 ± 0.01 |
| FSTWDIADKQEA [PMT2 C-terminal 12 aa] | 0.717 ± 0.016 | 0.732 ± 0.023 |
| SSVAFSKNLECV [YGR139W C-terminal 12 aa] | 0.7073 ± 0.0066 | 0.696 ± 0.038 |
| TPLLLGNKGKPQ [YBL094C C-terminal 12 aa] | 0.687 ± 0.019 | 0.696 ± 0.043 |
| TQEKLDSLLLMQ [LGE1 C-terminal 12 aa] | 0.702 ± 0.011 | 0.6982 ± 0.006 |
| VVVTGNLQILEH [UGP1 C-terminal 12 aa] | 0.678 ± 0.03 | 0.684 ± 0.019 |
| LADLRVYLRVPG [YGL088W C-terminal 12 aa] | 0.565 ± 0.021 | 0.568 ± 0.013 |
| VDALQIQYNRRP [SCD5 C-terminal 12 aa] | 0.681 ± 0.013 | 0.692 ± 0.033 |
| WVDAFGIIYGAL [YIL108W C-terminal 12 aa] | 0.7436 ± 0.0063 | 0.7232 ± 0.0018 |

| Sequence | protein stability index [1] | protein stability index (genetic background: wild type) |
| --- | --- | --- |
| KQYSSPEICFRV [YBR134W C-terminal 12 aa] | 0.692 ± 0.029 | 0.663 ± 0.014 |
| IRIVITINKVTL [IRC9 C-terminal 12 aa] | 0.348 ± 0.0076 | 0.36577 ± 0.00023 |
| APEEEAYKPNQN [KRR1 C-terminal 12 aa] | 0.708 ± 0.0089 | 0.671 ± 0.012 |
| DIYNQLHMFGEK [IGD1 C-terminal 12 aa] | 0.663 ± 0.0086 | 0.688 ± 0.01 |
| GLFPSNYVSLGN [ABP1 C-terminal 12 aa] | 0.689 ± 0.0081 | 0.721 ± 0.01 |
| SISVLFDSLAAL [PRS1 C-terminal 12 aa] | 0.714 ± 0.0093 | 0.736 ± 0.022 |
| NVGKQLSNEIIY [PRP28 C-terminal 12 aa] | 0.695 ± 0.045 | 0.686 ± 0.042 |
| QFKQILENYRPT [VPS38 C-terminal 12 aa] | 0.664 ± 0.0088 | 0.7348 ± 0.0013 |
| INRRQTPLQSNA [CDC39 C-terminal 12 aa] | 0.7 ± 0.011 | 0.666 ± 0.011 |
| LVAIDPRSEAYC [YMR324C C-terminal 12 aa] | 0.68838 ± 0.00058 | 0.671 ± 0.012 |
| DVFEEIGYSMKD [SAE3 C-terminal 12 aa] | 0.715 ± 0.0034 | 0.789 ± 0.041 |
| EKTRKNISKFFS [CPR7 C-terminal 12 aa] | 0.713 ± 0.022 | 0.707 ± 0.013 |
| ERNGWKFFFKEV [YHR137C-A C-terminal 12 aa] | 0.69374 ± 0.00051 | 0.6597 ± 0.0014 |
| QDRSCSWLKLLL [YLR171W C-terminal 12 aa] | 0.685 ± 0.021 | 0.704 ± 0.021 |
| REVREIHEMYCK [YKR012C C-terminal 12 aa] | 0.696 ± 0.034 | 0.6885 ± 0.0035 |
| PSMTTTNFSAFM [ECM22 C-terminal 12 aa] | 0.698 ± 0.008 | 0.697 ± 0.058 |
| SMHAFLCKIYKR [YCR095W-A C-terminal 12 aa] | 0.701 ± 0.02 | 0.6761 ± 0.0035 |
| SFVKIQDAIKKT [MRPL9 C-terminal 12 aa] | 0.7417 ± 0.0063 | 0.627 ± 0.015 |
| EEIVGRHSDSAT [YAP6 C-terminal 12 aa] | 0.6926 ± 0.0035 | 0.69 ± 0.011 |
| EATYKVLQQLHK [ADE8 C-terminal 12 aa] | 0.71 ± 0.012 | 0.7224 ± 0.00099 |
| YSKHLKRLLPYH [MRP35 C-terminal 12 aa] | 0.6788 ± 0.0019 | 0.712 ± 0.071 |

| Sequence | protein stability index [1] | protein stability index (genetic background: wild type) |
| --- | --- | --- |
| SVEEAFQLKSFD [LAA1 C-terminal 12 aa] | 0.713 ± 0.0014 | 0.715 ± 0.056 |
| GFQATVGKRRRM [SUI3 C-terminal 12 aa] | 0.699 ± 0.019 | 0.703 ± 0.0081 |
| VRADDLSTRFNI [RRP43 C-terminal 12 aa] | 0.657 ± 0.0082 | 0.664 ± 0.017 |
| ATSTAAAADKKT [HAP2 C-terminal 12 aa] | 0.6674 ± 0.0023 | 0.724 ± 0.04 |
| SKADSYRSVIRH [DLT1 C-terminal 12 aa] | 0.667 ± 0.037 | 0.675 ± 0.023 |
| PKGGNYVSRYQR [THO2 C-terminal 12 aa] | 0.695 ± 0.012 | 0.6623 ± 0.0015 |
| ALNRADKMSTIG [URH1 C-terminal 12 aa] | 0.676 ± 0.027 | 0.6665 ± 0.0042 |
| LHVISKVAGKLF [SBH1 C-terminal 12 aa] | 0.703 ± 0.022 | 0.656 ± 0.014 |
| EKKKNPYWYYQW [GEP3 C-terminal 12 aa] | 0.735 ± 0.009 | 0.673 ± 0.025 |
| FLSNEPTFLGCV [YPL135C-A C-terminal 12 aa] | 0.72 ± 0.018 | 0.722 ± 0.033 |
| LRSCDLKRKSKK [YLR302C C-terminal 12 aa] | 0.678 ± 0.037 | 0.68 ± 0.028 |
| EYSKKYLTTFFQ [YEA6 C-terminal 12 aa] | 0.706 ± 0.025 | 0.722 ± 0.03 |
| VVAQKPKLPYTK [YBR225W C-terminal 12 aa] | 0.694 ± 0.026 | 0.725 ± 0.066 |
| DFIKNPNDYFKQ [BEM2 C-terminal 12 aa] | 0.73319 ± 0.00064 | 0.729 ± 0.1 |
| IAEENSSTESLF [CIS1 C-terminal 12 aa] | 0.709 ± 0.0088 | 0.726 ± 0.065 |
| EECYLHSESFGY [FRE7 C-terminal 12 aa] | 0.68 ± 0.028 | 0.664 ± 0.028 |
| NVLGEPFDRYLD [UTP10 C-terminal 12 aa] | 0.724 ± 0.017 | 0.716 ± 0.013 |
| FDDDLTAQLYYP [TDA8 C-terminal 12 aa] | 0.7291 ± 0.0033 | 0.744 ± 0.043 |
| PLHFQLIWLPIF [YML099W-A C-terminal 12 aa] | 0.5232 ± 0.00075 | 0.505 ± 0.012 |
